# In patent US20240209076A1 (KODIAK SCIENCES, published 2024):
# Biological target: T1, human IL-6 (human, UniProt P05231 30-212)
# T1 construct: IL-6 flowed over captured antibodies
# Assay: SPR Biacore, supernatant Ab on Protein A chip, 37 C
# Method: Antibodies were captured on a Protein A chip (GE) by injecting 1:20 cell supernatant dilutions at 10 μL/min for 60 seconds. […] The sensor chip was regenerated by a 60 seconds injection of 10 mM Glycine pH 1.7 at the flow rate of 50 μL/min. […] For this setup, 1 μg/mL of purified antibody was injected over a Protein A chip at 10 μL/min for 25 seconds. […] The sensor chip was regenerated by a 60 seconds injection of 10 mM Glycine pH 1.7 at flow rate of 50 μL/min. Data analysis for supernatant and purified samples were performed using BIAevaluation software (GE). All sensorgrams were double reference subtracted and fit using a 1:1 Langmuir binding model.
# T1 sequence (P05231 30-212 limits assumed): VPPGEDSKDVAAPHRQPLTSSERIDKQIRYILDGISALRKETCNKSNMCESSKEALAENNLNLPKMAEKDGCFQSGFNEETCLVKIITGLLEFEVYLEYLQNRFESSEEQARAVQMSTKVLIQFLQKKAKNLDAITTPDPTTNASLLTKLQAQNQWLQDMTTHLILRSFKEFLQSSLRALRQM
Kd,koff,kon,Binder
0.5 nM,0.00104 s⁻¹,2.07e+06 M⁻¹ s⁻¹,"anti-IL-6 antibody, heavy chain I51H, G66D / light chain M32L, M50D, N52S, M88Q (antibody, IgG1, V domains shown, Full IgG1 (Expi293); VL = variant III) VH: EVQLVESGGGLVQPGGSLRLSCAASGFTFSPFAMSWVRQAPGKGLEWVAKHSPGGSWTYYSDTVTDRFTFSLDTSKSTAYLQMNSLRAEDTAVYYCARQLWGYYALDIWGQGTLVTVSS VL: DIQLTQSPSSLSASVGDRVTITCSASISVSYLYWYQQKPGKAPKLLIYDDSSLASGVPSRFSGSGSGTDFTLTISSLQPEDFATYYCQQWSGYPYTFGQGTKVEIK"
0.98 nM,0.00161 s⁻¹,1.64e+06 M⁻¹ s⁻¹,"anti-IL-6 antibody, heavy chain I51L, G66D / light chain M32L, M50D, N52S, M88Q (antibody, IgG1, V domains shown, Full IgG1 (Expi293); VL = variant III) VH: EVQLVESGGGLVQPGGSLRLSCAASGFTFSPFAMSWVRQAPGKGLEWVAKLSPGGSWTYYSDTVTDRFTFSLDTSKSTAYLQMNSLRAEDTAVYYCARQLWGYYALDIWGQGTLVTVSS VL: DIQLTQSPSSLSASVGDRVTITCSASISVSYLYWYQQKPGKAPKLLIYDDSSLASGVPSRFSGSGSGTDFTLTISSLQPEDFATYYCQQWSGYPYTFGQGTKVEIK"
0.217 nM,0.000401 s⁻¹,1.85e+06 M⁻¹ s⁻¹,"anti-IL-6 antibody, heavy chain I51S, G66D / light chain M32L, M50D, N52S, M88Q (antibody, IgG1, V domains shown, Full IgG1 (Expi293); VL = variant III) VH: EVQLVESGGGLVQPGGSLRLSCAASGFTFSPFAMSWVRQAPGKGLEWVAKSSPGGSWTYYSDTVTDRFTFSLDTSKSTAYLQMNSLRAEDTAVYYCARQLWGYYALDIWGQGTLVTVSS VL: DIQLTQSPSSLSASVGDRVTITCSASISVSYLYWYQQKPGKAPKLLIYDDSSLASGVPSRFSGSGSGTDFTLTISSLQPEDFATYYCQQWSGYPYTFGQGTKVEIK"
0.575 nM,0.00113 s⁻¹,1.96e+06 M⁻¹ s⁻¹,"anti-IL-6 antibody, heavy chain I51Q, G66D / light chain M32L, M50D, N52S, M88Q (antibody, IgG1, V domains shown, Full IgG1 (Expi293); VL = variant III) VH: EVQLVESGGGLVQPGGSLRLSCAASGFTFSPFAMSWVRQAPGKGLEWVAKQSPGGSWTYYSDTVTDRFTFSLDTSKSTAYLQMNSLRAEDTAVYYCARQLWGYYALDIWGQGTLVTVSS VL: DIQLTQSPSSLSASVGDRVTITCSASISVSYLYWYQQKPGKAPKLLIYDDSSLASGVPSRFSGSGSGTDFTLTISSLQPEDFATYYCQQWSGYPYTFGQGTKVEIK"
0.867 nM,0.00189 s⁻¹,2.18e+06 M⁻¹ s⁻¹,"anti-IL-6 antibody, heavy chain S35E, G66D / light chain M32L, M50D, N52S, M88Q (antibody, IgG1, V domains shown, Full IgG1 (Expi293); VL = variant III) VH: EVQLVESGGGLVQPGGSLRLSCAASGFTFSPFAMEWVRQAPGKGLEWVAKISPGGSWTYYSDTVTDRFTFSLDTSKSTAYLQMNSLRAEDTAVYYCARQLWGYYALDIWGQGTLVTVSS VL: DIQLTQSPSSLSASVGDRVTITCSASISVSYLYWYQQKPGKAPKLLIYDDSSLASGVPSRFSGSGSGTDFTLTISSLQPEDFATYYCQQWSGYPYTFGQGTKVEIK"
0.609 nM,0.000781 s⁻¹,1.28e+06 M⁻¹ s⁻¹,"anti-IL-6 antibody, heavy chain S35G, G66D / light chain M32L, M50D, N52S, M88Q (antibody, IgG1, V domains shown, Full IgG1 (Expi293); VL = variant III) VH: EVQLVESGGGLVQPGGSLRLSCAASGFTFSPFAMGWVRQAPGKGLEWVAKISPGGSWTYYSDTVTDRFTFSLDTSKSTAYLQMNSLRAEDTAVYYCARQLWGYYALDIWGQGTLVTVSS VL: DIQLTQSPSSLSASVGDRVTITCSASISVSYLYWYQQKPGKAPKLLIYDDSSLASGVPSRFSGSGSGTDFTLTISSLQPEDFATYYCQQWSGYPYTFGQGTKVEIK"
2.64 nM,0.00346 s⁻¹,1.31e+06 M⁻¹ s⁻¹,"anti-IL-6 antibody, heavy chain S35K, G66D / light chain M32L, M50D, N52S, M88Q (antibody, IgG1, V domains shown, Full IgG1 (Expi293); VL = variant III) VH: EVQLVESGGGLVQPGGSLRLSCAASGFTFSPFAMKWVRQAPGKGLEWVAKISPGGSWTYYSDTVTDRFTFSLDTSKSTAYLQMNSLRAEDTAVYYCARQLWGYYALDIWGQGTLVTVSS VL: DIQLTQSPSSLSASVGDRVTITCSASISVSYLYWYQQKPGKAPKLLIYDDSSLASGVPSRFSGSGSGTDFTLTISSLQPEDFATYYCQQWSGYPYTFGQGTKVEIK"
0.0357 nM,5.8e-05 s⁻¹,1.63e+06 M⁻¹ s⁻¹,"anti-IL-6 antibody, heavy chain I51R, G66D / light chain M32L, M50D, N52S, M88Q (antibody, IgG1, V domains shown, Full IgG1 (Expi293); VL = variant III) VH: EVQLVESGGGLVQPGGSLRLSCAASGFTFSPFAMSWVRQAPGKGLEWVAKRSPGGSWTYYSDTVTDRFTFSLDTSKSTAYLQMNSLRAEDTAVYYCARQLWGYYALDIWGQGTLVTVSS VL: DIQLTQSPSSLSASVGDRVTITCSASISVSYLYWYQQKPGKAPKLLIYDDSSLASGVPSRFSGSGSGTDFTLTISSLQPEDFATYYCQQWSGYPYTFGQGTKVEIK"
2.59 nM,0.00243 s⁻¹,942000 M⁻¹ s⁻¹,"anti-IL-6 antibody, heavy chain S35L, G66D / light chain M32L, M50D, N52S, M88Q (antibody, IgG1, V domains shown, Full IgG1 (Expi293); VL = variant III) VH: EVQLVESGGGLVQPGGSLRLSCAASGFTFSPFAMLWVRQAPGKGLEWVAKISPGGSWTYYSDTVTDRFTFSLDTSKSTAYLQMNSLRAEDTAVYYCARQLWGYYALDIWGQGTLVTVSS VL: DIQLTQSPSSLSASVGDRVTITCSASISVSYLYWYQQKPGKAPKLLIYDDSSLASGVPSRFSGSGSGTDFTLTISSLQPEDFATYYCQQWSGYPYTFGQGTKVEIK"
27.1 nM,0.00548 s⁻¹,202000 M⁻¹ s⁻¹,"anti-IL-6 antibody, heavy chain S35P, G66D / light chain M32L, M50D, N52S, M88Q (antibody, IgG1, V domains shown, Full IgG1 (Expi293); VL = variant III) VH: EVQLVESGGGLVQPGGSLRLSCAASGFTFSPFAMPWVRQAPGKGLEWVAKISPGGSWTYYSDTVTDRFTFSLDTSKSTAYLQMNSLRAEDTAVYYCARQLWGYYALDIWGQGTLVTVSS VL: DIQLTQSPSSLSASVGDRVTITCSASISVSYLYWYQQKPGKAPKLLIYDDSSLASGVPSRFSGSGSGTDFTLTISSLQPEDFATYYCQQWSGYPYTFGQGTKVEIK"
1.11 nM,0.00195 s⁻¹,1.76e+06 M⁻¹ s⁻¹,"anti-IL-6 antibody, heavy chain I51V, G66D / light chain M32L, M50D, N52S, M88Q (antibody, IgG1, V domains shown, Full IgG1 (Expi293); VL = variant III) VH: EVQLVESGGGLVQPGGSLRLSCAASGFTFSPFAMSWVRQAPGKGLEWVAKVSPGGSWTYYSDTVTDRFTFSLDTSKSTAYLQMNSLRAEDTAVYYCARQLWGYYALDIWGQGTLVTVSS VL: DIQLTQSPSSLSASVGDRVTITCSASISVSYLYWYQQKPGKAPKLLIYDDSSLASGVPSRFSGSGSGTDFTLTISSLQPEDFATYYCQQWSGYPYTFGQGTKVEIK"

# More lines, now with the values behind:
Binder,Kd,koff,kon
"anti-IL-6 antibody, heavy chain S35F, G66D / light chain M32L, M50D, N52S, M88Q (antibody, IgG1, V domains shown, Full IgG1 (Expi293); VL = variant III) VH: EVQLVESGGGLVQPGGSLRLSCAASGFTFSPFAMFWVRQAPGKGLEWVAKISPGGSWTYYSDTVTDRFTFSLDTSKSTAYLQMNSLRAEDTAVYYCARQLWGYYALDIWGQGTLVTVSS VL: DIQLTQSPSSLSASVGDRVTITCSASISVSYLYWYQQKPGKAPKLLIYDDSSLASGVPSRFSGSGSGTDFTLTISSLQPEDFATYYCQQWSGYPYTFGQGTKVEIK",3.17 nM,0.00484 s⁻¹,1.53e+06 M⁻¹ s⁻¹
"anti-IL-6 antibody, heavy chain I51T, G66D / light chain M32L, M50D, N52S, M88Q (antibody, IgG1, V domains shown, Full IgG1 (Expi293); VL = variant III) VH: EVQLVESGGGLVQPGGSLRLSCAASGFTFSPFAMSWVRQAPGKGLEWVAKTSPGGSWTYYSDTVTDRFTFSLDTSKSTAYLQMNSLRAEDTAVYYCARQLWGYYALDIWGQGTLVTVSS VL: DIQLTQSPSSLSASVGDRVTITCSASISVSYLYWYQQKPGKAPKLLIYDDSSLASGVPSRFSGSGSGTDFTLTISSLQPEDFATYYCQQWSGYPYTFGQGTKVEIK",0.233 nM,0.000478 s⁻¹,2.05e+06 M⁻¹ s⁻¹
"anti-IL-6 antibody, heavy chain I51K, G66D / light chain M32L, M50D, N52S, M88Q (antibody, IgG1, V domains shown, Full IgG1 (Expi293); VL = variant III) VH: EVQLVESGGGLVQPGGSLRLSCAASGFTFSPFAMSWVRQAPGKGLEWVAKKSPGGSWTYYSDTVTDRFTFSLDTSKSTAYLQMNSLRAEDTAVYYCARQLWGYYALDIWGQGTLVTVSS VL: DIQLTQSPSSLSASVGDRVTITCSASISVSYLYWYQQKPGKAPKLLIYDDSSLASGVPSRFSGSGSGTDFTLTISSLQPEDFATYYCQQWSGYPYTFGQGTKVEIK",0.349 nM,0.000601 s⁻¹,1.72e+06 M⁻¹ s⁻¹
"anti-IL-6 antibody, heavy chain S35A, G66D / light chain M32L, M50D, N52S, M88Q (antibody, IgG1, V domains shown, Full IgG1 (Expi293); VL = variant III) VH: EVQLVESGGGLVQPGGSLRLSCAASGFTFSPFAMAWVRQAPGKGLEWVAKISPGGSWTYYSDTVTDRFTFSLDTSKSTAYLQMNSLRAEDTAVYYCARQLWGYYALDIWGQGTLVTVSS VL: DIQLTQSPSSLSASVGDRVTITCSASISVSYLYWYQQKPGKAPKLLIYDDSSLASGVPSRFSGSGSGTDFTLTISSLQPEDFATYYCQQWSGYPYTFGQGTKVEIK",0.657 nM,0.00126 s⁻¹,1.93e+06 M⁻¹ s⁻¹
"anti-IL-6 antibody, heavy chain I51W, G66D / light chain M32L, M50D, N52S, M88Q (antibody, IgG1, V domains shown, Full IgG1 (Expi293); VL = variant III) VH: EVQLVESGGGLVQPGGSLRLSCAASGFTFSPFAMSWVRQAPGKGLEWVAKWSPGGSWTYYSDTVTDRFTFSLDTSKSTAYLQMNSLRAEDTAVYYCARQLWGYYALDIWGQGTLVTVSS VL: DIQLTQSPSSLSASVGDRVTITCSASISVSYLYWYQQKPGKAPKLLIYDDSSLASGVPSRFSGSGSGTDFTLTISSLQPEDFATYYCQQWSGYPYTFGQGTKVEIK",4.84 nM,0.00383 s⁻¹,791000 M⁻¹ s⁻¹
"anti-IL-6 antibody, heavy chain S35D, G66D / light chain M32L, M50D, N52S, M88Q (antibody, IgG1, V domains shown, Full IgG1 (Expi293); VL = variant III) VH: EVQLVESGGGLVQPGGSLRLSCAASGFTFSPFAMDWVRQAPGKGLEWVAKISPGGSWTYYSDTVTDRFTFSLDTSKSTAYLQMNSLRAEDTAVYYCARQLWGYYALDIWGQGTLVTVSS VL: DIQLTQSPSSLSASVGDRVTITCSASISVSYLYWYQQKPGKAPKLLIYDDSSLASGVPSRFSGSGSGTDFTLTISSLQPEDFATYYCQQWSGYPYTFGQGTKVEIK",0.753 nM,0.00177 s⁻¹,2.35e+06 M⁻¹ s⁻¹
"anti-IL-6 antibody, heavy chain I51Y, G66D / light chain M32L, M50D, N52S, M88Q (antibody, IgG1, V domains shown, Full IgG1 (Expi293); VL = variant III) VH: EVQLVESGGGLVQPGGSLRLSCAASGFTFSPFAMSWVRQAPGKGLEWVAKYSPGGSWTYYSDTVTDRFTFSLDTSKSTAYLQMNSLRAEDTAVYYCARQLWGYYALDIWGQGTLVTVSS VL: DIQLTQSPSSLSASVGDRVTITCSASISVSYLYWYQQKPGKAPKLLIYDDSSLASGVPSRFSGSGSGTDFTLTISSLQPEDFATYYCQQWSGYPYTFGQGTKVEIK",4.04 nM,0.0247 s⁻¹,6.1e+06 M⁻¹ s⁻¹
"anti-IL-6 antibody, heavy chain S35I, G66D / light chain M32L, M50D, N52S, M88Q (antibody, IgG1, V domains shown, Full IgG1 (Expi293); VL = variant III) VH: EVQLVESGGGLVQPGGSLRLSCAASGFTFSPFAMIWVRQAPGKGLEWVAKISPGGSWTYYSDTVTDRFTFSLDTSKSTAYLQMNSLRAEDTAVYYCARQLWGYYALDIWGQGTLVTVSS VL: DIQLTQSPSSLSASVGDRVTITCSASISVSYLYWYQQKPGKAPKLLIYDDSSLASGVPSRFSGSGSGTDFTLTISSLQPEDFATYYCQQWSGYPYTFGQGTKVEIK",1.62 nM,0.00147 s⁻¹,904000 M⁻¹ s⁻¹
